Source: US20190382482A1 (GlaxoSmithKline, published 2019)

T1: Human LAG-3 on cells (human, UniProt P18627 23-525)
T1 construct: whole, on cells; also called human LAG-3 expressing EL4 cells
T1 sequence (looked up): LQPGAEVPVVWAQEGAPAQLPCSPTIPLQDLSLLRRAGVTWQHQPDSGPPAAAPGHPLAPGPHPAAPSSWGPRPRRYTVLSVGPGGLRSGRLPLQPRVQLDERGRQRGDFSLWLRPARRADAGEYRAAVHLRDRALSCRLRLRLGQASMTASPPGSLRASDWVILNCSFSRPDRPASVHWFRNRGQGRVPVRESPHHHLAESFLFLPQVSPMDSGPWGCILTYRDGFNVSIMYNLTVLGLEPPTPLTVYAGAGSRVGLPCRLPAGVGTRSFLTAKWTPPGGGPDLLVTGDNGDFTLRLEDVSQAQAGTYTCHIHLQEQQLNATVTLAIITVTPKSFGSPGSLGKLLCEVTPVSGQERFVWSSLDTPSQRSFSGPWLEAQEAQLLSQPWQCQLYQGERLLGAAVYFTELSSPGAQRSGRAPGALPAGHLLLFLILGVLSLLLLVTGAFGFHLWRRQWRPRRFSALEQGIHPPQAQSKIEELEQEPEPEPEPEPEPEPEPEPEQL

T2: Recombinant human LAG-3 ECD-His6 (human, UniProt P18627 23-433)
T2 construct: Entry holds the ECD with the C-terminal His6; also called LAG-3-His; recombinant human LAG-3-His
T2 sequence: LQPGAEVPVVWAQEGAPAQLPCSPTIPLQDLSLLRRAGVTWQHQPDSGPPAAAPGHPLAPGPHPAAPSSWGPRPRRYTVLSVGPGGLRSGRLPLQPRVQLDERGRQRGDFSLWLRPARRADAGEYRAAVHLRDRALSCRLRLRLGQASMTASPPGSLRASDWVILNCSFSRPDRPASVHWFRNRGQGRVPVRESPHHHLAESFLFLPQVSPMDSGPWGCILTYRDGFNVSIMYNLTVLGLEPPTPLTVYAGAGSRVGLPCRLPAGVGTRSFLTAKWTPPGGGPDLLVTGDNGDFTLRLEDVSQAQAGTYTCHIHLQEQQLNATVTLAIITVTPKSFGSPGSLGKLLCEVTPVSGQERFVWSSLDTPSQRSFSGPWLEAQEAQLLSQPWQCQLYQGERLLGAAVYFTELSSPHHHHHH

B1: IMP731 (antibody, human IgG1, kappa, V domains shown)
VH: QVQLKESGPGLVAPSQSLSITCTVSGFSLTAYGVNWVRQPPGKGLEWLGMIWDDGSTDYNSALKSRLSISKDNSKSQVFLKMNSLQTDDTARYYCAREGDVAFDYWGQGTTLTVSS
VL: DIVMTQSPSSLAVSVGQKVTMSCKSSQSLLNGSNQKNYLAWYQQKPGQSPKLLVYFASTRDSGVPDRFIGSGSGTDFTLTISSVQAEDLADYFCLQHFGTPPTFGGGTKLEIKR
notes: Chimeric anti-LAG-3 antibody, parent of the humanised variants; also called chimeric IMP731; chimeric control
B2: H5L7BW (antibody, human IgG1, kappa, V domains shown)
VH: QVQLQESGPGLVKPSETLSLTCTVSGFSLTAYGVNWIRQPPGKGLEWIGMIWDDGSTDYDSALKSRVTISVDTSKNQFSLKLSSVTAADTAVYYCAREGDVAFDYWGQGTLVTVSS
VL: DIQMTQSPSSLSASVGDRVTITCKSSQSLLNPSNQKNYLAWYQQKPGKAPKLLVYFASTRDSGVPSRFSGSGSGTDFTLTISSLQPEDFATYYCLQHFGTPPTFGQGTKLEIKR
modifications: afucosylated Fc glycan (expressed in BioWa Potelligent FUT8 knock-out CHO cell line)
notes: differs only by lack of fucose; also called afucosylated H5L7BW; afucosylated H5L7
B3: H5L7 (antibody, human IgG1, kappa, V domains shown)
VH: B2 VH
VL: B2 VL
notes: wild type fucosylated form; also called H5L7WT; fucosylated H5L7

Experiments:
Human LAG-3 on cells = biological target: T1, Human LAG-3 on cells; assay: Flow cytometry (MFI dose response) on human LAG-3 expressing EL4 cells
Description: Human LAG-3 expressing EL4 cells were incubated with either IMP731, H5L7WT or H5L7BW Alexa647-conjugated antibodies at varying concentrations of up to 50 μg/ml for 30 minutes at room temperature. Cells were washed with FACS buffer (PBS+0.5% BSA) to remove unbound antibody.
EL4 cells and CD3⁺ T cells were analysed by FACS using a Beckman Coulter FC 500 flow cytometer. FACS raw data were analysed using CXP Analysis software (Beckman Coulter). The data was initially plotted on a forward-scatter versus side-scatter plot and the population of cells of interest were gated. This gated population was then plotted as a histogram displaying fluorescence intensity and the mean fluorescence intensity (MFI) calculated. MFI values were then plotted in GraphPad Prism 5 software to generate dose response curves.

[1] = biological target: T2, Recombinant human LAG-3 ECD-His6; assay: SPR Biacore T100, Anova comparison of kd, 3 runs
Description: (§1) Wild type fucosylated and afucosylated antibodies were compared for their ability to bind to recombinant human LAG-3 ECD with a C-terminal His6 (SEQ ID NO:51) using the Biacore™ T100 (GE Healthcare™). Protein A was immobilised on a CM5 chip by primary amine coupling. This surface was then used to capture the humanised antibodies. Recombinant human LAG-3 ECD-His6 was then passed over the captured antibodies at 32, 8, 2, 0.5 and 0.125 nM and regeneration was carried out using 50 mM NaOH. The binding curves were double referenced with buffer injection (i.e. 0 nM) and the data was fitted to the T100 analysis software using the 1:1 model. The run was carried out at 25° C., using HBS-EP as the running buffer.
(§2) In order to investigate the statistical significance of this kinetic data, this experiment was repeated 3 times with the same batch of the four antibodies and the chimeric control. KD, ka and kd parameters were each log (base 10) transformed prior to separate statistical analyses. For each parameter, a mixed model analysis of variance (‘Anova’) was performed on transformed data, including terms for Run (random block effect) and Antibody.

[2] = biological target: T2, Recombinant human LAG-3 ECD-His6; assay: SPR Biacore T100, Anova comparison of KD, 3 runs
Description: as §1, §2

Binder	EC50 (read off the curve) (Human LAG-3 on cells) [µg/mL]	kd ratio against H5L7 [1]	KD ratio against H5L7 [2]	fold decrease of kd against IMP731 [1] [fold]	kd ratio against IMP731 [1]	KD ratio against IMP731 [2]	fold decrease of KD against IMP731 [2] [fold]
B1	~0.01						
B2	~0.02	1.12	1.05				
B3	~0.02			~10	0.155	0.0774	10
